Article PMC7374715, “Conservation of Cdc14 phosphatase specificity in plant fungal pathogens: implications for antifungal development” (Scientific Reports, 2020)
Like-named read-outs stand apart in the source and are kept apart here.

B1: BcCdc14 (Botrytis cinerea B05.10) (protein)
chain: MHPMDYNSMLEWATLLPNDAHPGASAKKGPKDPREEDRPFHWLTYTDRLYLASYTTPPSPDTLFPYPEQQSSRRSPTKRSARAADGPSVVSDKREPPHYFSVDDTLLYNAFHHDFGPLHIGHLYRFAVQFHDILGAPENKNKPVVFWSKADARSRANAACLLATYMVLIQSWAPHLALAPIAQADPPLMPFRDAGYSQADYGITVQDVVYGVWRAKEQGFCALPQFDLEEYERYERVDQGDFNWLTPDFLAFASPQHHPVQPILPSSPLYASLPTTLEDVDTHPTLPTPFKNVLKHFTSRNIGLVVRLNSELYSPSFFTALGIEHLDMIFDDGTCPPLSVVRKFITLAHEMITVQKRGIAVHCKAGLGRTGCLIGAYLIYRYGFTANEIIAYMRFMRPGMVVGPQQHWLHLNQGTFREWWIEEQFEIRMKEKLANMAPVTPRKGHYTSKSQVVTPPNGNQRTPLGEVDNERSHSIGAQEDYLPAPTPGQPRK
B2: ScCdc14 (Saccharomyces cerevisiae S288C) (protein)
chain: MRRSVYLDNTIEFLRGRVYLGAYDYTPEDTDELVFFTVEDAIFYNSFHLDFGPMNIGHLYRFAVIFHEILNDPENANKAVVFYSSASTRQRANAACMLCCYMILVQAWTPHQVLQPLAQVDPPFMPFRDAGYSNADFEITIQDVVYGVWRAKEKGLIDLHSFNLESYEKYEHVEFGDFNVLTPDFIAFASPQEDHPKGYLATKSSHLNQPFKSVLNFFANNNVQLVVRLNSHLYNKKHFEDIGIQHLDLIFEDGTCPDLSIVKNFVGAAETIIKRGGKIAVHCKAGLGRTGCLIGAHLIYTYGFTANECIGFLRFIRPGMVVGPQQHWLYLHQNDFREWKYTTRISLKPSEAIGGLYPLISLEEYRLQKKKLKDDKRVAQNNIEGELRDLTMTPPSNGHGALSARNSSQPSTANNGSNSFKSSAVPQTSPGQPRKGQNGSNTIEDIN
notes: made in house; host or cells: E. coli BL21 AI

What was measured:
[1] = substrate: Cc1cc(=O)oc2c(F)c(OP(=O)(O)O)c(F)cc12; experiment: purified protein, by the assay type; conditions: other: DiFMUP, 0.5 nM enzyme, pH 7.5, 30 °C, mean of 3 ± SD
Experimental: All enzyme concentrations were 0.5 nM, except for PsCdc14 and VHR, which were assayed at 2 and 5 nM, respectively. Fluorescence intensity was measured continuously on a Synergy H1 microplate reader (BioTek) with excitation and emission wavelengths set at 358 and 450 nm, respectively. Fluorescence intensity was converted to product concentration using a 6,8-difluoro-4-methylumbelliferone standard curve. Background fluorescence was subtracted from each reaction and initial rates were calculated from the slope of the linear portion of the product concentration versus time plots. kcat and KM were calculated as described above.

[2] = substrate: O=[N+]([O-])c1ccc(OP(=O)(O)O)cc1; format: biochemical, Botrytis cinerea; conditions: other: pNPP, 25 mM HEPES pH 7.5, 30 °C, mean of 3 ± SD
Experimental: (§1) Activities towards varying concentrations of para-nitrophenyl phosphate (pNPP) were measured in 100 µL assay buffer (25 mM HEPES pH 7.5, 2 mM TCEP, 1 mM EDTA, and 150 mM NaCl) at 30 °C. Enzyme concentrations were chosen to achieve absorbance values within the linear response range while satisfying the steady-state assumption where substrate consumption was < 1%. Reactions were initiated by enzyme addition and stopped with 1 N NaOH. Absorbance at 405 nm was measured on a Synergy H1 microplate reader (BioTek) and converted to product concentration using a para-nitrophenol standard curve. Initial rates were plotted as a function of substrate concentration and fit with the Michealis-Menten equation in GraphPad Prism (Version 8) to determine kcat and KM.

[3] = substrate: O=[N+]([O-])c1ccc(OP(=O)(O)O)cc1; format: biochemical, Saccharomyces cerevisiae; conditions: other: pNPP, 25 mM HEPES pH 7.5, 30 °C, mean of 3 ± SD
Experimental: as §1

Protein | Km [1] [mM] | kcat [1] [s⁻¹] | kcat/Km [1] [M⁻¹ s⁻¹] | Km [2] [mM] | kcat [2] [s⁻¹] | kcat/Km [2] [M⁻¹ s⁻¹] | Km [3] [mM] | kcat [3] [s⁻¹] | kcat/Km [3] [M⁻¹ s⁻¹]
B1 | 0.034 ± 0.007 | 1 ± 0.2 | 43100 ± 11000 | 16 ± 2 | 0.38 ± 0.003 | 24 ± 2 |  |  | 
B2 | 0.011 ± 0.003 | 3 ± 0.4 | 253000 ± 34000 |  |  |  | 23 ± 1 | 1.12 ± 0.08 | 50 ± 4
